Laboratory results as given in the NTF2 design screens of Basanta et al. (2020).

Experiment: protease stability score; higher = more stable; yeast display proteolysis, trypsin and chymotrypsin;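 note: relative to predicted unfolded state with 0 unfolded-like and 1 meaning tenfold more protease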
Sequence “DEDREAIELLVRLLITAHETGDEKILWDLMDPNVRYHQGNFELHGREEIMELESRLRKHLGINHISFRLHDMQHIGDKLILHGSLMFRIGDKEHHTEVDIIVIKINGKWLIESIFIR” has a protease stability score of 1.57. With “DESERDFRRALEIMHKVVETGNWEEAKRMFDPHVLLDVNGVLIHGREVIIKYVERIDHIRFHHDLKRIETQGDKIYADVHEDLDISINGKTIHIRTRVHIISQKYDGRWLNTEHKVE” the protease stability score was 0.548. With “SEEEELEEFFIHLMIRMWDTGDFRTFKRLADPNVRLEVNGRHVVGREEVERLLRELLELLGADVIIHRDRDRDKFNGVIVVIIHGQIRQGDKFFDTHLHFVIEKVDGRWLLKSIHIEIR” the protease stability score was 1.5. “DEEREELHRHIKILNKAWTTGDERLLYELMDPHAKINIDGVDFIGREEATEEYHHRWRHLGVDHFEVRFTEIHDIDGRLHMQTKLNLIVNGQREERHTRVHVRKINGRWLVHNLEIR” gave a protease stability score of 0.125. Work on “NEDEEYVRLAHEILVETLRTGDEHITKRLADPHVRIDVGDKELHGWEDWLELLTHEARHLRTEIRVRNFDSQGDFIRVEVIIIIVVNGKRIEREVHYFSLKVDGRWLLTHVEIK” yielded a protease stability score of 0.242. “SELIRASETMMKAIADSEETGDWRLLRELFDPHVRIEIGDKKYHGWKYLKHFMEELRIESRTELEHVDTFDGKVRVEGTLTTDLRVNGQEHTINLDIRSIIVKIDGRWIIHKVKIH” showed a protease stability score of 1.14. Work on “NELEDRFDYAMKLWIDILRTGDEHQFEEMADPNVRIIDGDKHNVGREILYFLLWKFGFDNFEFRLHDFKIQGEKIHIDGHFRVDGQTHRVHFVVLKIDGRWLVESVERK” yielded a protease stability score of 2.01. “DKEREHLKQLAEIIIHLWHTGDEEILMHLADPNTRLIIEWNGQESQYHGREEMYTIIRRIYEELGADHIHIEDHDVQGDKVIIHSRLEQGDKRVELHLIVVFVNGRLKEMHIHINDK” showed a protease stability score of 2.34. In the case of “SEEDRDLHESAKLSEEIEDTGDEHMIHKQADPNVRLDYNGREFHGREMFSKMMIEWFTKLGVDHVHRKEMRIQGDWIHLHFEVRVGDKRHEVHVVALKVNGRWLHHSFEVHER”, the protease stability score is reported as 1.16. “DDKHEINRELTRLFFETWLTGDEDWFQKMLDPHVRVEVGDKRSHGREEAARMLREHFESLGIKHLEYKSIELQGDKTIIDGRLDVDGQTRNSKIKVLIIDGRLTHLHIKLE” gave a protease stability score of 1.01. Sequence “DEDKKVFETALRILIHYERTGDWELLHRLADPNTRMIQGDKLHIGREKAKEFINKWTEEMRPTDVRIDHVEIINGRIHIEGTTHGDVNGQRHDLEVHILSIKVDGRWRLKEFELK” has a protease stability score of 1.2. With “TEEEELAHEALRRFTREWVTGDEDLLQNLLDPHTKIEIDGRELHGWHEMVRYYRHLGFDVNEFHLHRFHIQGDKIRVDGELRFHVDGRTHTIRFTIVARKVNGKWLNTHEHYK” the protease stability score was 0.721. “DEDEKLKQEWMELFLESLRTGDWRILRKLIDPNVRLEVGDKQVIGREKVLEILKKILDEIRNQDVKLHDYTEINGRIYLDVELDLQQGDKRITLKIHTVLEKYDGRWIIRTFRIE” gave a protease stability score of 1.23. For “DDRERATRELLKLLWDAMKTGDEELFYKLADPDTRMIINGRELHGMEEVSRILLELLTHMRLKNITIRDIDVQGDKVDVHGELHGEVGDKSHTFETHIIILKVNGKWVLRSYIIR”, the protease stability score was 1.55. With “DEDKKLAHESFRIWLHWMRTGDEKMMEELMDPNTRTYFEGHSDHGRSAARQYANRIDHIHHIHVHHIEIQGDKVEVDGRLDGVVNGKRIDVRIVIESVKVNGKWIVRSIEEH” the protease stability score was 1.41. Sequence “SEDRQIAEQIVEDLSTSTVTGDWRLILELLDPDTRIVVDGVDLHGREEFLRFFERIDHMRARRTRLSDFRSYGDKVEADVDIKMEYIVDGRNITERFKERFIIIKVNGRWIVKEWRLK” has a protease stability score of 2.61. Sequence “HEHKEEVDELISMALESMHTGDEETWYRMADPHVRMDVNGQDIHGREEVSEIYVHWLREAGVKHIKIEDVKVINGRVDLHIFSKVNGRFFEYRLISEKIDGQWHIKSVRIL” has a protease stability score of 0.399. “HEEDERIEHFFELYKRSLKTGNEEIIEYLFDPHVRYEQGDWEVHGRTEFIEMLKHLRFHTVRLRDYRLIGDYVHLDIELEGRVGDKNLHVKSTLIALKVDGRWRIHTLEIE” showed a protease stability score of 0.772. With “SEEDERTYKVAKDWHEALQTGNEEIMERLLDPHVRIDVVVDGKKSHKHGMEVVSETLRRIREHLRMKWEIHRVDAQGDKLFVDGRYHIEVGDKKEHYIMHVLMIVIDGRLHSLTIRNE” the protease stability score was 1.1. “TERREVVEQLLRHFFQSTITGDWRDLEHYIDPNARNIVNGKITHGREAITEYYMRFDYFHVDDIIIRERDVIDGQAHLRVEIHGQIEINGRKNRFETHVEIIILKVDGRWVWRSFDIR” showed a protease stability score of 1.33. For “SEDDQLVRELMRRIMKNIMTGDEEKHLNLVDPHARTIFDGREYHGRELYTMVFRILYNRIDHWTDLKVEHVSIYDGVIEIHVRADVDINGKRTEITMIIFVNKVNGRWIIEYVVYS”, the protease stability score was 1.37. “SEEKQDVDEFIKRVIETLETGDWRNRHDLLDPNVRIDIDGVELIGRHIALELDWYFLRHARVRMYIRHVNVQGEYMDVDGRLHIHQGDKNIHIETRLIVHKINGRWLIKSIELR” gave a protease stability score of 2.87. Work on “SETDEDFKRLVEEFIRLFLTGDEDQLLELHDPNTRVEVGDFEEHGMEKWSRFLEEERRRVKGLKLVREDEKIEVQGNKLHLILHGAIEFDGVRLFTRIIVHAEKVNGKWVIRRFKMETR” yielded a protease stability score of 1.54. “DDIRKWMEHVFRDFNRSLKTGDERRSLELLDPHARIDINGVELIGREMFRKELHEMRIHVDDFDIESVDIQGDKVHLRTRVRVTIIVDGVKIHEERELEIHLHKFDGRWYIKEIRVR” showed a protease stability score of 1.46. With “DEDERLAKHFIELFIESFLTGDFDEVRKLIDPHTRVEIIIGDKVIEDHGWEAYSRTFNHLGIDHIHREDFRVTLVNGRAVLRLQFRIEIGDKEFDMHIHVFSNKINGRWHVERILIYVR” the protease stability score was 2.34. In the case of “HEDEHKWERAFRIWIHALITGDEETTNELMDPNTRLNFNGVDFIGREDMIELIRHIRIHREHITHVEIRTFNGVLHVHMHVRRDGNINGQRRNTDVEIHIVIFKVNGRWVLHSTTIVVN”, the protease stability score is reported as 2.23. With “DDSSELLRKLLEELLRAYKTGDFDTLIEFFDPDVKLEFNGREVHGMDHFISEHRHFIRRFPGIRIHIDDVKWHTQGDKAQLHMDGTEDFDGKRRRVELIFIIEKFDGRWFFSSIRWHNI” the protease stability score was 1.53. “DEEHKHLREILRLMIEWLRTGDWEKIERNADPTTKMDYGEFKTHGREEYYRALMILIRHLGVDHITLHDFTFIDGKIYLDLIIHVNGQHERVTLEMHFVDGVIKRHHVREK” gave a protease stability score of 0.566. For “DTEKYLYDFALRLHIHAHETGNFDQLIKNLDPHYRIDINGQIFHGREWVEREYKRAGIDKFELQHFEVKHEHVQGDFLIMDGKLEGNFNGVRINTRVEIYHEKFDGQWKIREVHHR”, the protease stability score was 0.185. Work on “DEIEEEAKEMTKRILEDIKTGDEDSIFKLMDPNVKLVVGEKIHIGRETASKFFRKHWEDLGITRVESHLRTTHLIDGRVHVHSETNWNGVRIEVIIEIEKVNGRWVIREIHIHMH” yielded a protease stability score of 1.29. In the case of “NELEKETHEITRRWIEILLTGNEEDWAKLADPHVRIDINGKKYVGREMVVEYLRELLDKIKNLQFHITRIHDQGDKSEIDGRLEYNGRKHEARVEIWIIDGKIRSEHYSIR”, the protease stability score is reported as 2.2. “TEEEKHARLVKEHIVEILKTGDEREWMERADPNMYMTVGNKEQHGREQVMHLIERLLKELGIKHSHIKRLELQGDKVHLDVELNFNGVTRDSRLIFIVINGRFHEVIIIIH” showed a protease stability score of 0.947. Work on “DEDTREAEKMYRLFRHLFLTGDWEHTYQLADPHVRTDFNGVEWHGRELALEILLHFLEILGVDHITLKRQEIHIVDGRLLVILHLELRAENHSEDLLIIVIMNKFDGRWHVESEEIKVR” yielded a protease stability score of 0.539. Work on “SDKDHLFKWAVRHLLEFTQTGNWEHMEHYLDPNVRLNFHIDGVSIERHGMEFLKKLLRDLSEDAGLDNINVQLHSFEIQGEKVNIHLKETFNGRHHETHNVVFKFDGRWKLTKSEVFFL” yielded a protease stability score of 0.913. Sequence “DEDKEIAKKAIEDLLRAWYTGDEEFLKNLVDPNVRSNFDGVDYHGRDEVEKFWHDHLRDLGADHVEFSLHELRIYGDKIILHTKIKFNVNGREIRRETEVISRKIDGRWLIKEIHFR” has a protease stability score of 1.42. “STEEEEAKKFSDIVLKAFDTGDEDLYRDLADPDTRSIINGVEKHGWKDIARHIKRIDHSDTHWDRVEMRVVNGQARVHVKGHIDVTIDGQRFVLRVTWHIIVTKIDGRWHLEELSLEVS” showed a protease stability score of 1.31. “SEEEEELKKFLDIFLRALRTGDFDESLRLMDPRYRSIVGDKRHIGMENLYRWLTEMRIERVHFELDSFRIQGNKLEIDIRNDVDGQIDGKQFRIEFEVHIHMEKYNGKWVVHVLEIR” gave a protease stability score of 0.932. Sequence “SEEDKHHETLARLIIEALTTGDEESLMHLMDPNARIQIGDKDNHGWRSLHIHHRELGIDHKEIRVREVRFVNGKIHIDSQVHFHFNGVTFDVRTHIILVVINGKLTKMWVIIG” has a protease stability score of 0.363. With “SEERSRVLHYLSLFIHFLETGDWKALYELMDPDVRIHVGDFELHGRHIFVRHLRDLGIKHVEESIRVRRMILIDGVIHMDGHLERHLIVGDKRVDERHEVHEVILKVDGKWFVHSIHVK” the protease stability score was 1.14. For “DHKEARDVAQTMMHLLKHGDFEQIVRNADPNAHFVVGDKEYHGRDNLRKVLKRLHDQVDHISFRTYKVDEDTAKLDATVQINGRNYRMDVLVHFHNGRIKDLNIKVTDEDTQREADK”, the protease stability score was 1.57. With “SEMENLAREALRIIFHNVLTGDEEEFIRMADPNVRFDINGVEYHGWKRVLQELQRFKGLRIHHIHLEDMDNQGDKIIIYSKLEVHYNGVHTELTVEFISEKVNGRWILRMVVFH” the protease stability score was 2.47. “SELKNWARIIAERVTDELNTGNEHRLRELFDPNVKIRIDGRDFHGMDTLRRFFEELRITHTHWEHKDMHLIGDKALLHGTLKINILQGDKTHETTFDVRIFVIKVNGRWSYEHMEID” gave a protease stability score of 1.22. Work on “DELEEILEELFRRMLEWLRTGDEEAMSKLADPHYKLLWNGREHVGREVILERLEKINQHLRIRHIHIHEIRFIDGRVESDTRVDGEVNGRRTEYTQKVIIFIVNGRFKFLEIQLR” yielded a protease stability score of 1.71. With “SEHSHFLVELALIFWKALVTGDEERLDRLIDPNTRLEIGDKEEIGRENIIRKLDHIRIKTEEITVRDYRTQGDKFHMIGHVDLHFDFNGVRHRFTTEVRVDLTTVDGKIHSHHIKYR” the protease stability score was 0.145. “DREHDELRKTWEIYSQALSTGDEDELNKLADPNTRLDIDGKELHGMEDVHRHLHHNLRRVDHIELRIHEIRYQGDFAHVDGEVIIVYDGVKKSRRVHLILTKINGRWILTSVEFR” showed a protease stability score of 1.28. In the case of “SEQEKELQDALEILMHRWLTGDEDFLYEMMDPNVRFTINGQDFHGRDFFRQKWKELGLTRVEIDLKFVRLQGDKATVHGHINFNGRTTDVIMYIDKVNGVWITKTIEFR”, the protease stability score is reported as 2.17. For “SEDERDAKRAEEEFKRHVETGDEKMLREMMDPHVRFEIGDKEFIGWNFAEKLHLDLIERIDHEELILRHINVVNGKVDSDVELRVHVDGVTIIVRTRIISKKIDGRWLIRSIIIH”, the protease stability score was 0.695. Sequence “SEEEKRIRDWARLMEEWRRTGDEEDMSRNLDPNARLILIIDGRNILFHGREEVVRVLEELKERLGFKHEEIKDSRVQGDFLHIHGTLRFDGVETEVRVDTIVINGVVRTLKYHFE” has a protease stability score of 0.467. Sequence “DEHTDAVETTWKRLLEDERTGNEDSLERLADPNYRVIINGKHYHGMEHSLHILSEWRITDHEIKDVEIQGEKAHIDGRFNGIIDGKHLNIHVLILIEKVDGRWIIKSVIFK” has a protease stability score of -0.096. “DELHHVLEIMLRELITAWRTGDERVLNELFDPHVLIVIGDKYYHGREFVTRWLRHIRIKHSEFHLRRIHIQGDYVHITGEFRIEGEFDGRENTVTHDSKIVTLKIDGRWTFHSIVLE” gave a protease stability score of 2.16.
